The values below come from patent US20160303217A1 (published 2016).

The chains are these.
B2: porcine transferrin (ligand)
chain: VAQKTVRWCTISNQEANKCSSFRENMSKAVKNGPLVSCVKKSSYLDCIKAIRDKEADAVTLDAGLVFEAGLAPYNLKPVVAEFYGQKDNPQTHYYAVAVVKKGSNFQWNQLQGKRSCHTGLGRSAGWIIPMGLLYDQLPEPRKPIEKAVASFFSSSCVPCADPVNFPKLCQQCAGKGAEKCACSNHEPYFGYAGAFNCLKEDAGDVAFVKHSTVLENLPDKADRDQYELLCRDNTRRPVDDYENCYLAQVPSHAVVARSVDGQEDSIWELLNQAQEHFGRDKSPDFQLFSSSHGKDLLFKDSANGFLKIPSKMDSSLYLGYQYVTALRNLREEISPDSSKNECKKVRWCAIGHEETQKCDAWSINSGGKIECVSAENTEDCIAKIVKGEADAMSLDGGYIYIAGKCGLVPVLAENYKTEGENCVNTPEKGYLAVAVVKKSSGPDLNWNNLKGKKSCHTAVDRTAGWNIPMGLLYNKINSCKFDQFFGEGCAPGSQRNSSLCALCIGSERAPGRECLANNHERYYGYTGAFRCLVEKGDVAFVKDQVVQQNTDGKNKDDWAKDLKQMDFELLCQNGAREPVDNAENCHLARAPNHAVVARDDKVTCVAEELLKQQAQFGRHVTDCSSSFCMFKSNTKDLLFRDDTQCLARVGKTTYESYLGADYITAVANLRKCSTSKLLEACTFHSAKNPRVETTT

In the experiment “porcine transferrin” the target is B2. The experiment can be described thus: BLI. Background: Biolayer interferometry detects binding as a change in optical thickness at a sensor tip.
For experiment [1], the target named is T1, A. pleuropneumoniae TbpB 20-528 (amino acid 20-528) derived from strain H49, purified recombinant truncated …. Briefly: ITC. On the technique in general: Isothermal titration calorimetry measures the heat released or taken up as one component is titrated into another.
The target of experiment [2] is T1, A. pleuropneumoniae TbpB 20-528 (amino …). Briefly: SPR. In general terms: In SPR one partner is held on a chip, and binding of the other changes the refractive index at the surface.
In experiment [3] the target is A. pleuropneumoniae TbpB 26-528 (amino acid 26-528) derived from strain H87, purified recombinant truncated …. The experiment can be described thus: SPR.

B1: H. parasuis TbpB 27-577 (amino acid 27-577) derived from the Nagasaki strain Hp5, purified recombinant truncated protein (protein)
chain: FDLEDVQPNKTTGVSKEEYQDVETDKKVKEQLGELMEPALGYVVKVPVSQSGARRTEISNPEAITDEDLKKIPNHETIKSVAEQNYGWVVDKTADKTMKYVRSGYAIDVDHYGTRDKGYVFYKGINPSKELPQGLVLTYQGEWDFTSDANLDAKRPNSNPEFNGYGPGQRIATTSANAKGRTYTSEFEVDFSAKKLKGKLNSKTANTESLERYSIEAEPKGNRFRGKAIAKDTSDAILGKSSDYLEGGFYGPKAEELAGKFITNDKSLFAVFSAKHNGSNVDTVRIIDASKIDLTHFNSSELTNFGDASVLIIDGKKMDLAGTDFKNSKTIEINGKTMVAVACCSNLEYMKFGQLWQKEGETAKDNSLFLQGERTTTDKMPKGGNYKYIGTWDAQVSKENNWVATADDDRKAGYRTEFDVDFGNKNLSGKLFDKNGVNPVFTVDAKINGNGFTGKAKTSDAGFALDSDSSRYDNVKFSDVAVNGGFYGPTAAELGGQFFHKSDNGSVGAIFGAKRQVKK
The term Kd denotes the constant that tells how readily two partners part at equilibrium. On to B1, for which the Kd with porcine transferrin is 21 nM.
Take B2: the Kd in experiment [1] turned out to be 55 nM; in experiment [2] it was 44 nM; in experiment [3], 60 nM.
